Here are results for two molecules from patent US12358959B2, “Compositions and methods for oligodendrocyte development” (CHILDREN'S MEDICAL CENTER CORPORATION, priority 2016, dated 2025).

In assay [1] the target is GPR56 NTF (GPR56^N) (Mus musculus, UniProt Q8K209, DEL93-142). Particulars: aa 93-142 deleted; cited from earlier work.
The target in assay [2] is GPR56 NTF (GPR56^N) (Mus musculus, UniProt Q8K209). Particulars: between amino acids 27-160; cited from earlier work.
Assay [3] concerns the target T1, Transglutaminase 2 (Tgm2), mouse, endogenous (mixed glial cell lysate / microglia-derived) (mouse, UniProt P21981 2-686).
T1 construct: Endogenous protein captured from lysate, or present in mouse tissue; also called TG2; microglial TG2
T1 sequence (looked up): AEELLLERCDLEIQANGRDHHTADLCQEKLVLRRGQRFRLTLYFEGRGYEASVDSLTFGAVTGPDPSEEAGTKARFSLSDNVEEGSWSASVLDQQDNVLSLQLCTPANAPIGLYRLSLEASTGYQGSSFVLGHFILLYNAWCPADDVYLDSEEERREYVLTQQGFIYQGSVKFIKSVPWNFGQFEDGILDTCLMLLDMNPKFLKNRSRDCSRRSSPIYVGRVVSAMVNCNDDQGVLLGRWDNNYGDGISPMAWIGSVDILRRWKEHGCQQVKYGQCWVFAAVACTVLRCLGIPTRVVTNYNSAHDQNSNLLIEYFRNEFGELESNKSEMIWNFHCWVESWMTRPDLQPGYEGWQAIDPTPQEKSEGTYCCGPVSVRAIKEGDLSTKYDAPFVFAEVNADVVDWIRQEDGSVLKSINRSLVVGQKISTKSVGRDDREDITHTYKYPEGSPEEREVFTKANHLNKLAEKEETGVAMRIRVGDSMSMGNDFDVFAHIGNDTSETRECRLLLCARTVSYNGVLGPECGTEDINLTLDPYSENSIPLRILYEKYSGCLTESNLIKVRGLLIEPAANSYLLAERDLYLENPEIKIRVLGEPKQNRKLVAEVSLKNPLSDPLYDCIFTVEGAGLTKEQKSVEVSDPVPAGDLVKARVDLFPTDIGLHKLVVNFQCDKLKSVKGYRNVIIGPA
Briefly: figure legend of the summary model.

In assay [4] the target is T2, human recombinant Transglutaminase 2 (TG2) (human, UniProt P21980 1-687, limits assumed).
T2 construct: also called recombinant TG2; recombinant TGM2
T2 sequence: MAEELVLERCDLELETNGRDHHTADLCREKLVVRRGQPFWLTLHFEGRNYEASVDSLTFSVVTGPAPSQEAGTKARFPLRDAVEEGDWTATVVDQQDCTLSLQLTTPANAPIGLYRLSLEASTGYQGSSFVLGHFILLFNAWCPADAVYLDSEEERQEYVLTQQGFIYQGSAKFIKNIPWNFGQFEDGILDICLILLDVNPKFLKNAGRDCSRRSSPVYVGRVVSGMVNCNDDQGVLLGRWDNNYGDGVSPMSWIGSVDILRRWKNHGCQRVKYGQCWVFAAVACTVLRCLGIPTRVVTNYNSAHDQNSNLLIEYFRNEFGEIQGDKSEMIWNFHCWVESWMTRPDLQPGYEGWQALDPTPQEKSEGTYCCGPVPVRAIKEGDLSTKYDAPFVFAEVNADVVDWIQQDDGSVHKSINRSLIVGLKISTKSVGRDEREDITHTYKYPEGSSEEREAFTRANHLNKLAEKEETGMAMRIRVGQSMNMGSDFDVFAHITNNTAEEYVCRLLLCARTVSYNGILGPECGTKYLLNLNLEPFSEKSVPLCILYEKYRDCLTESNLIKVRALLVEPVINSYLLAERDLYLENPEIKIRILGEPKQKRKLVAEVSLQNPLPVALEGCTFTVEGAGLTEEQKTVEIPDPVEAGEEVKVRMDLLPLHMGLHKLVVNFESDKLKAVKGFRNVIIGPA
Put plainly: told in words; NTF release from HEK 293T cells expressing mouse GPR56. The source says: HEK 293T cells were transiently transfected with mouse Gpr56 cDNA. […] The conditioned media were harvested, filtered, and concentrated as previously described. Equal volumes of the concentrated media were used for Western blot (Luo et al., PLOS One 9, e100043, 2014), while the cell pellets were used for GTP-Rho pull-down assay.

The next assay deals with T3, GPR56^N (Mus musculus, UniProt Q8K209).
T3 construct: Using the soluble N-terminal fragment of GPR56 (GPR56^N); made in house
Put plainly: In vitro biotinylation/proteomics pull-down from mixed glial cell lysate with mass spectrometry. Particulars: peptide sequences specific for binding to GPR56^N.
From the text: To identify the ligand of GPR56 in OPCs, an in vitro biotinylation/proteomics approach was employed using single-step capture on streptavidin beads to purify the binding partner(s) of GPR56 (FIGS. 2A-2B). Proteins with more than five identified tryptic peptides in the Mass Spectrometry (MS) output from three independent experiments are listed at Table 1.
(§1) GPR56^N and GPR56^Ndel fusions proteins with either mFc or hFc tag were generated as previously described (Luo et al. Proc Natl Acad Sci USA 108, 12925-12930, 2011). BirA enzyme was used to in vitro biotinylate GPR56^N-mFc-biotag protein as previously described (De Laurenzi and Melino Mol Cell Biol 21, 148-155, 2001). Mixed glial cell lysate was incubated with biotinylated GPR56^N protein in lysis buffer [20 mM Hepes (pH 7.3), 150 mM NaCl, and 5 mM MgCl2] with protein inhibitor mixture (Roche Molecular Biochemicals) and 1% Brij 96 (Fluka). Streptavidin beads (Sigma) were used to affinity purify immunocomplexes. GPR56-associated proteins were eluted in 2×SDS loading buffer, subjected to SDS/PAGE. The whole lane was used for MS at the Taplin Biological Mass Spectrometry at Havard Medical School. MS data were searched against the mouse International Protein Index (IPI mouse 339) database using the protein identification software Mascot (v2.2.04, Matrix Sciences) (Luo et al. Proc Natl Acad Sci USA 108, 12925-12930, 2011).
as §1, with “al.,” for “al.”, “(Stacey et al., J” for “(De Laurenzi and Melino Mol Cell”, “Chem 277, 29283-29293, 2002).” for “21, 148-155, 2001).”, “(20” for “[20”, “[pH 7.3],” for “(pH 7.3),”, “MgCl2)” for “MgCl2]”

Chain of GPR56 NTF (GPR56^N) (Mus musculus, UniProt Q8K209, DEL93-142) (Q8K209 with tags, fused parts or gaps DEL93-142): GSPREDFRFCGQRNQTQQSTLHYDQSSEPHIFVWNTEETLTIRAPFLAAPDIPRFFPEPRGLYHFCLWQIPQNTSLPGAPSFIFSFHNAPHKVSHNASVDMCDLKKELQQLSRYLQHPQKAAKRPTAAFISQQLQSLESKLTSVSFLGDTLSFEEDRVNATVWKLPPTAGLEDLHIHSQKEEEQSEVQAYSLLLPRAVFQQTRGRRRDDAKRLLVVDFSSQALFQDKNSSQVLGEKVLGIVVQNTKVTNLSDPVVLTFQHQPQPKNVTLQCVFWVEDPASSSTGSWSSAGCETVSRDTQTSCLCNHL

B1: Col III: collagen III (gene symbol Col3a1), ligand for GPR56 in the developing cerebral cortex (protein, UniProt P08121 155-1219, looked up)
Collagen alpha-1(III) chain: QFDSYDVKSGVGGMGGYPGPAGPPGPPGPPGSSGHPGSPGSPGYQGPPGEPGQAGPAGPPGPPGALGPAGPAGKDGESGRPGRPGERGLPGPPGIKGPAGMPGFPGMKGHRGFDGRNGEKGETGAPGLKGENGLPGDNGAPGPMGPRGAPGERGRPGLPGAAGARGNDGARGSDGQPGPPGPPGTAGFPGSPGAKGEVGPAGSPGSNGSPGQRGEPGPQGHAGAQGPPGPPGNNGSPGGKGEMGPAGIPGAPGLIGARGPPGPAGTNGIPGTRGPSGEPGKNGAKGEPGARGERGEAGSPGIPGPKGEDGKDGSPGEPGANGLPGAAGERGPSGFRGPAGPNGIPGEKGPPGERGGPGPAGPRGVAGEPGRDGTPGGPGIRGMPGSPGGPGNDGKPGPPGSQGESGRPGPPGPSGPRGQPGVMGFPGPKGNDGAPGKNGERGGPGGPGLPGPAGKNGETGPQGPPGPTGPAGDKGDSGPPGPQGLQGIPGTGGPPGENGKPGEPGPKGEVGAPGAPGGKGDSGAPGERGPPGTAGIPGARGGAGPPGPEGGKGPAGPPGPPGASGSPGLQGMPGERGGPGSPGPKGEKGEPGGAGADGVPGKDGPRGPAGPIGPPGPAGQPGDKGEGGSPGLPGIAGPRGGPGERGEHGPPGPAGFPGAPGQNGEPGAKGERGAPGEKGEGGPPGPAGPTGSSGPAGPPGPQGVKGERGSPGGPGTAGFPGGRGLPGPPGNNGNPGPPGPSGAPGKDGPPGPAGNSGSPGNPGIAGPKGDAGQPGEKGPPGAQGPPGSPGPLGIAGLTGARGLAGPPGMPGPRGSPGPQGIKGESGKPGASGHNGERGPPGPQGLPGQPGTAGEPGRDGNPGSDGQPGRDGSPGGKGDRGENGSPGAPGAPGHPGPPGPVGPSGKSGDRGETGPAGPSGAPGPAGARGAPGPQGPRGDKGETGERGSNGIKGHRGFPGNPGPPGSPGAAGHQGAIGSPGPAGPRGPVGPHGPPGKDGTSGHPGPIGPPGPRGNRGERGSEGSPGHPGQPGPPGPPGAPGPCCGGGAAAIAGVGGEKSGGFSPYYG
As for B1, in the assay with GPR56 NTF (GPR56^N) [1], the “Binding to GPR56^Ndel” value is recorded as “abrogated Col III binding”. Further, the “Binding to GPR56 NTF (GPR56^N)” value with GPR56 NTF (GPR56^N) [2] is “binds”.

B2: GPR56 (ADGRG1), mouse, on cells (oligodendrocyte precursor cells; HEK 293T cells transfected with mouse Gpr56 cDNA) (receptor, UniProt Q8K209 26-687, looked up)
chain: GSPREDFRFCGQRNQTQQSTLHYDQSSEPHIFVWNTEETLTIRAPFLAAPDIPRFFPEPRGLYHFCLYWSRHTGRLHLRYGKHDYLLSSQASRLLCFQKQEQSLKQGAPLIATSVSSWQIPQNTSLPGAPSFIFSFHNAPHKVSHNASVDMCDLKKELQQLSRYLQHPQKAAKRPTAAFISQQLQSLESKLTSVSFLGDTLSFEEDRVNATVWKLPPTAGLEDLHIHSQKEEEQSEVQAYSLLLPRAVFQQTRGRRRDDAKRLLVVDFSSQALFQDKNSSQVLGEKVLGIVVQNTKVTNLSDPVVLTFQHQPQPKNVTLQCVFWVEDPASSSTGSWSSAGCETVSRDTQTSCLCNHLTYFAVLMVSSTEVEATHKHYLTLLSYVGCVISALACVFTIAAYLCSRRKSRDYTIKVHMNLLSAVFLLDVSFLLSEPVALTGSEAACRTSAMFLHFSLLACLSWMGLEGYNLYRLVVEVFGTYVPGYLLKLSIVGWGFPVFLVTLVALVDVNNYGPIILAVRRTPERVTYPSMCWIRDSLVSYVTNLGLFSLVFLFNLAMLATMVVQILRLRPHSQNWPHVLTLLGLSLVLGLPWALVFFSFASGTFQLVILYLFSIITSFQGFLIFLWYWSMRFQAQGGPSPLKNNSDSAKLPISSGSTSSSRI
notes: whole, on cells; not used here; also called OPC GPR56; OPC-GPR56
As for B2, the binding result in assay [3] and in assay [4] was “binds” throughout. Besides, the “Peptide Number (Exp1)” value in the assay with GPR56^N (experiment 1) came to 12. In the assay with GPR56^N (experiment 2), the “Peptide Number (Exp2)” value is recorded as 11. For the same molecule, the “Peptide Number (Exp3)” value with GPR56^N (experiment 3) was 9.
